According to patent US20130171147A1:
One block for each binder: values may come before it.

Target: rat prolactin receptor (PRLR) on Nb2 lymphoma cells (rat) (UniProt P05710)
Test: FACS on rat lymphoma cell line Nb2, IgG1

EC50: 0.3 nM
B1: HE06.642 (antibody, IgG1, V domains shown)
VH: EVQLVESGGGLVQPGGSLRLSCAVSGFTFSSYGMSWVRQAPGKGLEWVATVSSGGTYTYYPDSVKGRFTISRDNSKNTLYLQMNSLRAEDTAVYYCARHRGNYYATYYYAMDYWGQGTLVTVSS
VL: DIVLTQSPDSLAVSLGERATINCKASKSVSTSGYTYMHWYQQKPGQPPKLLIYLASNRESGVPDRFSGSGSGTDFTLTISPVQAEDVATYYCQHSGELPPSFGQGTKLEIKR

EC50: 1.2 nM
B2: 001-E06 (human IgG1) (antibody, V domains shown)
VH: QVELLESGGGLVQPGGSLRLSCAASGFTFSSYWMSWVRQAPGKGLEWVSSVSDTGTDTHYADSVKGRFTISRDNSKNTLYLQMNSLRAEDTAVYYCAKTPLAYSSGWYYFDYWGQGTLVTVSS
VL: DIVLTQPPSASGTPGQRVTISCSGSSSNIGSNTVNWYQQLPGTAPKLLIYRNYQRPSGVPDRFSGSKSGTSASLAISGLRSEDEADYYCQSYDSSLSGSVFGGGTKLTVLG
